Results: patent US9649378B2, “Cancer methods” (priority 2010, dated 2017)
Entries after “also recorded” stand apart in the source; their conditions may differ.

Legend:
SKOV-3 cells = assay: in vitro growth assay (MTT-based) with rOPCML added to growth media; conditions: 0.5-10 μM for 48 h or 2 μM for 96 h
Procedure: (§1) (A) SKOV-3 cells were subjected to a 48 h in vitro growth assay with varying concentrations of OPCML administration. (B) A 96 h in vitro SKOV-3 growth assay with 2 μM rOPCML administered to growth media. Time points were collected every 24 h and normalised to control cells treated with vehicle only. Cell viability was quantified using MTT and measured at 570 nm. (C) Upper panel—OSE-C2 and SKOV-3 cells were subjected to a 48 h in vitro growth assay with varying OPCML concentrations (0.5, 1, 2, 5 and 10 μM); lower panel—normal ovarian surface epithelial cells (OSE-C2) and a panel of ovarian (SKOV-3, IGROV, OVISE, OVCAR-5, A2780, PEA1 and PEA2) and […] breast cancer cells were subjected to an in vitro growth assay with 10 μm OPCML. Time points were collected at 24 h and 48 h and cell growth was monitored to vehicle only controls. Cell viability was quantified in all experiments using an MTT-based assay and measured at 570 nm.
(B) a 96 h in vitro SKOV-3 growth assay with 2 μM rOPCML administered to growth media. Time points were collected every 24 h and normalised to control cells treated with vehicle only. […] Cell viability was quantified in all experiments using an MU-based assay and measured at 570 nm. […] Caspase cleavage was quantified using the GaspaseGlo kit and normalised to cell viability. […]

[1] = system: normal ovarian surface epithelial cells (OSE-C2); assay: in vitro growth assay (MTT-based) with rOPCML; type: cell-based; conditions: OSE-C2, OPCML expressing
Procedure: as §1
(B) a 96 h in vitro SKOV-3 growth assay with 2 μM rOPCML administered to growth media. Time points were collected every 24 h and normalised to control cells treated with vehicle only. (C) Normal ovarian surface epithelial cells (OSE-C2) and a panel of ovarian (SKOV-3, IGROV, OVISE, OVCAR-5, A2780, PEA1 and PEA2), […] breast cancer cells and non-adherant (H69, H501 small-cell) and adherent (A549 carcinoma, HCC95 non-SSLC squamous) lung cancer cells were subjected to an in vitro growth assay with 10 μM of rOPCML. Time points were collected at 24 and 48 h and cell growth was normalised to vehicle only controls. Cell viability was quantified in all experiments using an MU-based assay and measured at 570 nm. Caspase cleavage-based apoptosis assays using (D) A2780 and (E) SKOV-3 were undertaken with administration of rOPCML (2, 5 and 10 μM) over 24 h. Caspase cleavage was quantified using the GaspaseGlo kit and normalised to cell viability. […]

[2] = system: ovarian cancer cell lines (SKOV-3, IGROV, OVISE, OVCAR-5, A2780, PEA1 and PEA2); assay: in vitro growth assay (MTT-based) with rOPCML, ovarian panel; type: cell-based; conditions: for growth of ovarian and breast cancer cell lines: 10 μM, 24 h and 48 h, versus vehicle only; for ovarian cancer cell lines growth-inhibited / killed, of lines tested: in vitro
Procedure: (§2) We have tested 0.5, 1, 2, 5 and 10 μM of recombinant […] human OPCML in vitro, and there is a linear dose response which has not yet peaked. […] The physician skilled in the art will be able to identify suitable doses based upon this information and their skill in the art.
as §1
(§3) (B) a 96 h in vitro SKOV-3 growth assay with 2 μM rOPCML administered to growth media. Time points were collected every 24 h and normalised to control cells treated with vehicle only. (C) Normal ovarian surface epithelial cells (OSE-C2) and a panel of ovarian (SKOV-3, IGROV, OVISE, OVCAR-5, A2780, PEA1 and PEA2), HER2-positive (MDA-231) and negative (BT-474) breast cancer cells and non-adherant (H69, H501 small-cell) and adherent (A549 carcinoma, HCC95 non-SSLC squamous) lung cancer cells were subjected to an in vitro growth assay with 10 μM of rOPCML. Time points were collected at 24 and 48 h and cell growth was normalised to vehicle only controls. Cell viability was quantified in all experiments using an MU-based assay and measured at 570 nm. Caspase cleavage-based apoptosis assays using (D) A2780 and (E) SKOV-3 were undertaken with administration of rOPCML (2, 5 and 10 μM) over 24 h. Caspase cleavage was quantified using the GaspaseGlo kit and normalised to cell viability.

[3] = system: HER2-positive (MDA-231) and negative (BT-474) breast cancer cells; assay: in vitro growth assay (MTT-based) with rOPCML, breast lines; type: cell-based; conditions: for breast cancer cell lines growth-inhibited / killed, of lines tested: both HER2 positive and HER2 negative
Procedure: as §2, §1
(B) a 96 h in vitro SKOV-3 growth assay with 2 μM rOPCML administered to growth media. Time points were collected every 24 h and normalised to control cells treated with vehicle only. (C) Normal ovarian surface epithelial cells (OSE-C2) and a panel of ovarian (SKOV-3, IGROV, OVISE, OVCAR-5, A2780, PEA1 and PEA2), […] breast cancer cells and non-adherant (H69, H501 small-cell) and adherent (A549 carcinoma, HCC95 non-SSLC squamous) lung cancer cells were subjected to an in vitro growth assay with 10 μM of rOPCML. Time points were collected at 24 and 48 h and cell growth was normalised to vehicle only controls. Cell viability was quantified in all experiments using an MU-based assay and measured at 570 nm. […] Caspase cleavage was quantified using the GaspaseGlo kit and normalised to cell viability.

[4] = system: lung cancer cells (H69, H501, A549, HCC95); assay: in vitro growth assay (MTT-based) with rOPCML, lung lines; type: cell-based; conditions: 10 μM rOPCML
Procedure: as §3

[5] = system: SKOV-3 and A2780 ovarian cancer cells; assay: Annexin V FACS and caspase-glo apoptosis assays with r-OPCML; type: cell-based
Procedure: as §3
Purified recombinant human OPCML domain 1-3 protein (r-OPCML) (FIG. 8) was produced from the bacterial expression vector (pHis-Trx) subcloned with domains 1-3 of OPCML, excluding the signal peptide and GPI anchor sequences (FIG. 8A).

[6] = system: receptor tyrosine kinase signaling in SKOV-3 and A2780 cells; assay: Western blot / IFM of RTKs and downstream signalling after exogenous OPCML; type: cell-based; conditions: for RTK levels and RTK signalling: 2 μM for 48 h, Western blot
Procedure: FIG. 9: Cellular uptake of recombinant OPCML. SKOV-3 cells were incubated with vehicle alone or vehicle including 2 μM OPCML for 24 h. Cells were then washed 3× with PBS and fixed with 4% PFA. Cells were then prepared for IFM using rabbit α-HER2 mAb and mouse α-OPCML mAb. Goat α-rabbit alexa-488 and α-mouse alexa-555 secondary antibodies were used. Slides were imaged using a Leica SP5 confocal microscope.
(A) Western Blot analysis of pHER, tHER2, tEGFR, pEGFR, tFGFR, pFGFR proteins from SKOV-3 cells untreated, treated with vehicle only or OPCML (2 μM) for 48 h. (B) Western blot analysis of pAKT, tAKT, pERK, tERK proteins from SKOV-3 cells untreated, treated with vehicle only or OPCML (2 μM) for 48 h. Protein loading was standardised by BCA-assay and β-tubulin was used as a loading control.
(A) Western Blot analysis of pHER, tHER2, tEGFR, pEGFR, tFGFR, pFGFR proteins from SKOV-3 and A2780 cells treated with vehicle only or OPCML (2 μM) for 48 h. (B) Western blot analysis of pAKT, tAKT, pERK, tERK, proteins from SKOV-3 and A2780 cells treated with vehicle only or OPCML (2 μM) for 48 h. Protein loading was standardised by BCA-assay and β-tubulin was used as a loading control.

[7] = system: A2780 cancer cells injected intraperitoneally; assay: intraperitoneal tumour growth assay, r-OPCML versus BSA; type: in vivo, nude mouse; conditions: A2780 model; for IP tumour growth / tumour weight: 1 ml (10 μM) IP twice weekly, 3 weeks; for IP tumour growth / tumour weight / ascites formation / volume / number of IP peritoneal deposits / peritoneal dissemination: versus BSA
Procedure: (§4) Comparison of r-OPCML and control protein (bovine serum albumen) treated A2780 and SKOV-3 cell lines. (A) Gross anatomical observation of the animals (B) Intraperitoneal tumour growth assay. Tumours were removed, weighed and photographed after 3 weeks of twice-weekly 1 mL intraperitoneal injection of 10 μM r-OPCML or BSA. Representative A2780 and SKOV-3 tumour xenografts from 4 animals are presented. A scale bar is shown. (C) mean tumour weight, (D) number of deposits and (E) volume of ascites removed per mouse from the intraperitoneal assay presented in B. Comparison is shown between tumours and ascites collected from BSA- (−) and r-OPCML-treated (+) mice. (F) Western blot analysis of recovered tumours from control (BSA) and r-OPCML treated animals recapitulates in-vitro findings.
(§5) In view of these in-vitro findings, we proceeded to determine whether r-OPCML protein had potential and relevance as an in-vivo tumour suppressor therapy. Mice with either SKOV-3 or A2780 cancer cells injected intraperitoneally (IP), after tumour establishment, received twice-weekly IP injections of either 1 ml (10 μM) bovine serum albumin (BSA) or 1 ml (10 μM) r-OPCML.

[8] = system: SKOV-3 cancer cells injected intraperitoneally; assay: as above; type: in vivo, nude mouse; conditions: for IP tumour growth / tumour weight: 1 ml (10 μM) IP twice weekly, 3 weeks
Procedure: as §4, §5

[9] = 0.5, 1, 2, 5 and 10 μM tested in vitro, ovarian and breast cancer cell lines
[10] = listed as recombinant full length human OPCML
[11] = SKOV-3 model, versus BSA, listed as rOPCML

B1: r-OPCML: Purified recombinant human OPCML domain 1-3 protein from E. coli, excluding signal peptide and GPI anchor sequences; SEQ ID No 5 (protein, listed as Homo sapiens)
chain: PKAMDNVTVRQGESATLRCTIDDRVTRVAWLNRSTILYAGNDKWSIDPRVIILVNTPTQYSIMIQNVDVYDEGPYTCSVQTDNHPKTSRVHLIVQVPPQIMNISSDITVNEGSSVTLLCLAIGRPEPTVTWRHLSVKEGQGFVSEDEYLEISDIKRDQSGEYECSALNDVAAPDVRKVKITVNYPPYISKAKNTGVSVGQKGILSCEASAVPMAEFQWFKEETRLATGLDGMRIENKGRMSTLTFFNVSEKDYGNYTCVATNKLGNTNASIT
- SKOV-3 cell growth in vitro (SKOV-3 cells): specific, dose-dependent inhibition of cell growth
- SKOV-3 cell growth in vitro (SKOV-3 cells; listed as exogenous OPCML): inhibits SKOV-3 cell growth
- effect on normal ovarian surface epithelial cells [1]: without affecting normal ovarian surface epithelial cells
- effect on normal ovarian surface epithelial cells ([1]; listed as OPCML): sparing normal ovarian surface epithelial cells
- effect on normal ovarian surface epithelial cells ([1]; listed as rOPCML): no effect
- growth of ovarian and breast cancer cell lines ([2]; listed as Exogenous OPCML): inhibits growth
- growth of ovarian and breast cancer cell lines ([2]; listed as OPCML): inhibits growth
- growth of ovarian and breast cancer cell lines ([2]; listed as rOPCML): specifically inhibits
- concentration from which inhibition of cell growth is seen [2, 9]: ≥ 2 μm
- concentration giving frank cell death [2, 9]: 5 to 10 µM
- response of PEA2 cell line ([2]; PEA2): resistance
- ovarian cancer cell lines growth-inhibited / killed, of lines tested [2]: 6 of 7
- ovarian cancer cell lines growth-inhibited / killed, of lines tested ([2]; listed as rOPCML): 6/7
- ovarian cancer cell lines growth-inhibited / killed, of lines tested [2, 10]: 6/7
- growth of HER2+ and HER2− breast cancer cell line ([3]; 10 μM, 24 h and 48 h): profoundly inhibited
- breast cancer cell lines growth-inhibited / killed, of lines tested [3]: 2 of 2
- breast cancer cell lines growth-inhibited / killed, of lines tested [3, 10]: 2/2
- lung cancer cell lines with profoundly inhibited cell growth, of lines tested [4]: 5 of 5
- apoptosis in caspase-glo assay ([5]; 2, 5 and 10 μM over 24 h): induces apoptosis in both these cell lines in a dose dependent fashion
- early apoptosis, time post exposure ([5]; Annexin V FACS apoptosis assay, depending on cell line): 2 to 6 h
- RTK levels and RTK signalling [6]: potently downregulated
- RTK levels and RTK signalling ([6]; listed as Exogenous OPCML): inhibits RTK signaling
- RTK levels and RTK signalling ([6]; listed as exogenous OPCML): inhibits receptor tyrosine kinase signaling
- RTK levels and RTK signalling ([6]; listed as rOPCML): abrogates total RTK levels and inhibits RTK signalling
- ERK protein levels ([6]; SKOV-3, 2 μM OPCML 48 h): downregulates
- HER2 protein level ([6]; SKOV-3, 2 μM OPCML, listed as exogenous OPCML): downregulation of HER2; also recorded: downregulates
- pERK and pAKT ([6]; SKOV-3 and A2780, immunoblotting): abrogating pERK and pAKT
- AKT S473 phosphorylation ([6]; administration to cancer cells in vitro): inhibits phospho S473 AKT; also recorded: inhibits AKT s473 phosphorylation
- IP tumour growth / tumour weight [7]: significantly and profoundly suppressed
- IP tumour growth / tumour weight ([7]; listed as Recombinant OPCML): reduces tumour growth
- IP tumour growth / tumour weight ([7]; listed as rOPCML): profound inhibition
- condition of animals at 3 weeks ([7]; BSA controls deteriorating): remained well
- ascites formation / volume [7]: significantly and profoundly suppressed
- number of IP peritoneal deposits / peritoneal dissemination [7]: profoundly inhibited
- ascites formation / volume ([7]; listed as rOPCML): profound inhibition
- number of IP peritoneal deposits / peritoneal dissemination ([7]; listed as rOPCML): profound inhibition
- RTKs in recovered IP tumour (Western blotting) ([8]; SKOV3 IP tumour, r-OPCML versus BSA treated): same spectrum of RTKs inhibited
- peritoneal dissemination ([8]; SKOV3 model, versus BSA): profound inhibition
- IP tumour growth / tumour weight ([8]; SKOV-3 model, versus BSA): significantly and profoundly suppressed
- IP tumour growth / tumour weight ([8]; SKOV-3 model, versus BSA, listed as Recombinant OPCML): reduces tumour growth
- IP tumour growth / tumour weight [8, 11]: profound inhibition
- condition of animals at 3 weeks ([8]; SKOV-3 model, BSA controls deteriorating): remained well
- ascites formation / volume ([8]; SKOV-3 model, versus BSA): significantly and profoundly suppressed
- ascites formation / volume [8, 11]: profound inhibition
